Molecular target: T1, FUS1 peptide (wild-type PDZ protein-binding motif)
T1 peptide: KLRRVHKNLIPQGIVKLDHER
Assay: ProteinChip array with SELDI-TOF mass spectrometry

- binding result: binds
B1: Apaf1 peptide (PDZ protein-binding motif) (peptide)
peptide: LGILYILQTLE
